Laboratory results as given in article PMC5357909, “Structural and functional studies of a noncanonical Dicer from Entamoeba histolytica” (Scientific Reports, 2017).

Assays:
[1] = molecular target: T1, EA256 (EhRNaseIII-AadsRBD chimera) (Entamoeba histolytica / Aquifex aeolicus, UniProt C4LU64 2-256+O67082:145-221, internal_change); experiment: EMSA; 5 mM Mg2+; completely bound at 1e-4 M; EMSA (1x): 30 mM Tris-HCl pH 7.5, 30 mM NaCl, 5 mM MgCl2, 1 mM DTT, 0.1 mM EDTA, 5% glycerol; room temperature 10 min then ice 20 min; 6% native PAGE, 0.5x TBE; conditions: protein: recombinant, tags: His-Sumo removed by Ulp1, chain copies: 2, blunt
T1 sequence: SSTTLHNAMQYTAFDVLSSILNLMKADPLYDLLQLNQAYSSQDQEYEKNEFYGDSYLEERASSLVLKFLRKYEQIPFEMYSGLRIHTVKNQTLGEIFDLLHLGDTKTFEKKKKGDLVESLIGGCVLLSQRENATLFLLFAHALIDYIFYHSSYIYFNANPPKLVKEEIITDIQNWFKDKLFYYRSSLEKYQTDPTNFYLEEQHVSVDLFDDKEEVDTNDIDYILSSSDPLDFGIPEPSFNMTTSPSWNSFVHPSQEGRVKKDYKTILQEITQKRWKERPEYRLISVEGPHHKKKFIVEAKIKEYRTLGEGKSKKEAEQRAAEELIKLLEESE

[2] = molecular target: T1, EA256 (EhRNaseIII-AadsRBD chimera); experiment: EMSA; 5 mM Mg2+; more than 70% bound at 1e-4 M; EMSA (1x): 30 mM Tris-HCl pH 7.5, 30 mM NaCl, 5 mM MgCl2, 1 mM DTT, 0.1 mM EDTA, 5% glycerol; room temperature 10 min then ice 20 min; 6% native PAGE, 0.5x TBE; conditions: protein: recombinant; tags: His-Sumo removed by Ulp1; chain copies: 2; blunt, 25 bp

B1: RNA50 (dsRNA)
RNA 1: GGGAGAAACGCGGCCUCUUCUUAUUUAUGGCGACAUGUUGUGCCUCUCCC
RNA 2: GGGAGAGGCACAACAUGUCGCCAUAAAUAAGAAGAGGCCGCGUUUCUCCC
- apparent K (half saturation) ([1]; 50 bp): < 100 µM

B2: RNA70 (dsRNA)
RNA 1: GGGAGAAACGCGGCCUCUUCUUAUUUAUGGCGACAUGUUGUGCCACAUAUUGAGCCAGUAGCGCUCUCCC
RNA 2: GGGAGAGCGCUACUGGCUCAAUAUGUGGCACAACAUGUCGCCAUAAAUAAGAAGAGGCCGCGUUUCUCCC
- apparent K (half saturation) ([1]; 70 bp): < 100 µM

B3: RNA100 (dsRNA)
RNA 1: GGGAGAAACGCGGCCUCUUCUUAUUUAUGGCGACAUGUUGUGCCACAUAUUGAGCCAGUAGCGCGGUGUAUUAUACCAGACCUUAUUGGUAUGGUCUCCC
RNA 2: GGGAGACCAUACCAAUAAGGUCUGGUAUAAUACACCGCGCUACUGGCUCAAUAUGUGGCACAACAUGUCGCCAUAAAUAAGAAGAGGCCGCGUUUCUCCC
- apparent K (half saturation) ([1]; 100 bp): < 100 µM

B4: RNA25 (dsRNA)
RNA 1: GGGAGAAACGCGGCCUCUUUCUCCC
RNA 2: GGGAGAAAGAGGCCGCGUUUCUCCC
- apparent K (half saturation) [2]: < 100 µM
